Literature values in paper PMC5428663, “Identification of small molecule inhibitors of Interleukin-18” (Scientific Reports, 2017).

Molecular target: IL-18 (Homo sapiens) (UniProt Q14116)
Sequence (Q14116 37-193): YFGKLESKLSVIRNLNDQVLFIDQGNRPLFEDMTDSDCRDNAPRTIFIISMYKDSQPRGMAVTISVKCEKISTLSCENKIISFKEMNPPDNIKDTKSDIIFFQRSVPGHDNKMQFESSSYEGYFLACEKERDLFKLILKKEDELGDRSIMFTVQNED

Sequence of IL-18BP (O95998 31-194): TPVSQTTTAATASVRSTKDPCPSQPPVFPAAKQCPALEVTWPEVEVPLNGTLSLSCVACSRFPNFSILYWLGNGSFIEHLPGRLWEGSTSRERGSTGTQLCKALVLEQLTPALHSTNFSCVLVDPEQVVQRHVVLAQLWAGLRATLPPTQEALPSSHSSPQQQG

For IL-18BP (from UniProt O95998), the Kd is given as 0.4 nM.
